Experiment in all cases: peptide SPOT array, c-Myc-tagged receptor at 1 uM or 100 nM, anti-c-Myc-Cy3
In assay [1] the target is Bcl-xL, Q07817.
Assay [2] addresses T1, Bfl-1, Q16548.
T1 chain: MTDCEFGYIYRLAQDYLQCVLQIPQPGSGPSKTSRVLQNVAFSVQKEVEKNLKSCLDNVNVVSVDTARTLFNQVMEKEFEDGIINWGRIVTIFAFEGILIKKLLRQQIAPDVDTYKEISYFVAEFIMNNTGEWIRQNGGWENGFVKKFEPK

Assay [3] concerns the target T2, Mcl-1, Q07820.
T2 chain: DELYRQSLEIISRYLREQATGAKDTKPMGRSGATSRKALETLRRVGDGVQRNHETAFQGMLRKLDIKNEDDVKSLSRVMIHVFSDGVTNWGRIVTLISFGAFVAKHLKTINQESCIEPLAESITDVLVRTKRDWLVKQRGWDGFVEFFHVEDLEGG

Sequence of Bcl-xL, Q07817 (Q07817 1-209): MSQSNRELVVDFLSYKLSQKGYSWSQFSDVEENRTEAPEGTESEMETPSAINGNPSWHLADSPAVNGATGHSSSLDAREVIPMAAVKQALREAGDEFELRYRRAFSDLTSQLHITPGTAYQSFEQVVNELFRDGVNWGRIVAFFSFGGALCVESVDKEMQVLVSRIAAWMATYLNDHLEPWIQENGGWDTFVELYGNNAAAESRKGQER

B1: USP40 (peptide)
chain: MSLFLRVVFSFTMFGDLFEEEYSTVS
Take B1: the SPOT signal as a fraction of Bim BH3's signal on the same receptor and array in assay [1] came to 0.07; in assay [2], 0.04; in assay [3], 0.07.

B2: FBXW5 (peptide)
chain: LTETSLISGNLHRILDITSCSVLWLN
On to B2, for which the SPOT signal as a fraction of Bim BH3's signal on the same receptor and array was 0.06 in assay [1], 0.07 in assay [2] and 0.04 in assay [3].

B3: IPO5 (peptide)
chain: SEIMHSFAKCIEVMLDGCLNNEHFEE
B3: the SPOT signal as a fraction of Bim BH3's signal on the same receptor and array in assay [1] is 0.1; in assay [2], 0.04; in assay [3] it was 0.06.

B4: ADAMTS14 (peptide)
chain: AFGLGDLPNLLGLVGDQLGDTERKRR
Consider B4, for which the SPOT signal as a fraction of Bim BH3's signal on the same receptor and array in assay [1] was 0.1; in assay [2], 0.06; in assay [3], 0.08.

B5: XXXX (peptide)
chain: TAAAAYRGAHLRGRGRTVYNTFRAAA
As for B5, the SPOT signal as a fraction of Bim BH3's signal on the same receptor and array in assay [1] was determined as 2.64; in assay [2], 1.71; in assay [3], 1.37.

B6: MYCBP2 (peptide)
chain: AIILCNVCGNDCTDCDRFLHLHRRTK
For the molecule B6, the SPOT signal as a fraction of Bim BH3's signal on the same receptor and array in assay [1] is 0.2; in assay [2] it was 0.13; in assay [3], 0.16.

B7: NOX4 (peptide)
chain: TETKATFGVHLKIVGDWTERFRDLLL
Regarding B7, the SPOT signal as a fraction of Bim BH3's signal on the same receptor and array in assay [1] was 0.16; in assay [2], 0.11; in assay [3], 0.08.

B8: XXXX (peptide)
chain: GTAVAYRGAHDRGRGRAVYNTFRAAP
Take B8: the SPOT signal as a fraction of Bim BH3's signal on the same receptor and array is 2.76 in assay [1], 1.47 in assay [2] and 1.35 in assay [3].

B9: RAD51L3 (peptide)
chain: LALMMQLARELKTLARDLGMAVVVTN
In the case of B9, the SPOT signal as a fraction of Bim BH3's signal on the same receptor and array in assay [1] was found to be 0.1; in assay [2], 0.07; in assay [3] it was 0.12.

B10: TAP1 (peptide)
chain: MSILTIASAVLEFVGDGIYNNTMGHV
Consider B10, for which the SPOT signal as a fraction of Bim BH3's signal on the same receptor and array in assay [1] was 0.06; in assay [2], 0.04; in assay [3], 0.05.

B11: SMPD2 (peptide)
chain: PYLSKHRADRDRRLGDFLNQESFDLA
Regarding B11, the results for the SPOT signal as a fraction of Bim BH3's signal on the same receptor and array in assay [1], in assay [2] and in assay [3] were 0.49, 0.56 and 0.51, respectively.

B12: RTEL1 (peptide)
chain: RVCPYYLSRNLKQQLDIIFMPYNYLL
For B12, the SPOT signal as a fraction of Bim BH3's signal on the same receptor and array stood at 1.16 in assay [1], 0.52 in assay [2] and 0.75 in assay [3].

B13: SPTAN1 (peptide)
chain: QRKHEGFERDLAALLDKVNSLGETAE
B13: the SPOT signal as a fraction of Bim BH3's signal on the same receptor and array was 0.1 in assay [1], 0.08 in assay [2] and 0.11 in assay [3].

B14: ZNF295 (peptide)
chain: ERLKGQLCDVLLIVLDQKFRAHKNVL
Consider B14, for which the SPOT signal as a fraction of Bim BH3's signal on the same receptor and array in assay [1] was 0.41; in assay [2], 0.19; in assay [3], 0.19.

B15: MYBBP1A (peptide)
chain: LALLAQPSHLMRQVLRSVFGHICSHL
Take B15: the SPOT signal as a fraction of Bim BH3's signal on the same receptor and array was determined as 0.75 in assay [1], 0.54 in assay [2] and 0.54 in assay [3].

B16: KIAA0664 (peptide)
chain: AEVMRQRGINDRYLGKVLELVLRSPA
In the case of B16, the figures for the SPOT signal as a fraction of Bim BH3's signal on the same receptor and array in assay [1], in assay [2] and in assay [3] were 0.86, 0.49 and 0.53, respectively.

B17: MCF2L2 (peptide)
chain: SQEPLEKAQLDALVGDQLIQSHHYAA
Regarding B17, the SPOT signal as a fraction of Bim BH3's signal on the same receptor and array in assay [1] came out at 0.06; in assay [2], 0.04; in assay [3], 0.03.

B18: P2RX7 (peptide)
chain: QCPIFRLGDIFRETLDNFSDVAIQGG
For B18, the SPOT signal as a fraction of Bim BH3's signal on the same receptor and array in assay [1] turned out to be 0.06; in assay [2], 0.04; in assay [3], 0.05.

B19: KIF19 (peptide)
chain: KLALEQRCREDRARGRRLEETLPRRI
For B19, the SPOT signal as a fraction of Bim BH3's signal on the same receptor and array in assay [1] amounted to 0.83; in assay [2], 0.43; in assay [3] it was 0.44.

B20: DOCK2 (peptide)
chain: SHFVACMTAILNQMGDQHYSFYIETF
As to B20, the SPOT signal as a fraction of Bim BH3's signal on the same receptor and array was 0.07 in assay [1], 0.05 in assay [2] and 0.06 in assay [3].

B21: ISOC1 (peptide)
chain: AGYELLIQKFLSLYLDQIDMHRKFVV
As for B21, the SPOT signal as a fraction of Bim BH3's signal on the same receptor and array turned out to be 0.09 in assay [1], 0.05 in assay [2] and 0.07 in assay [3].

B22: NCAPH2 (peptide)
chain: QEQEQHVPFDIHTYLDQLVSRFPQLN
For the molecule B22, the results for the SPOT signal as a fraction of Bim BH3's signal on the same receptor and array in assay [1], in assay [2] and in assay [3] were 0.06, 0.04 and 0.04, respectively.

B23: SEC16A (peptide)
chain: NNNMDVESRTDATMGDTLASRGLLDA
B23: the SPOT signal as a fraction of Bim BH3's signal on the same receptor and array in assay [1] came to 0.05; in assay [2] it was 0.06; in assay [3], 0.03.

B24: COL2A1 (peptide)
chain: VLLTLLVAAVLRCQGQDVQEAGSCVQ
On to B24, for which the SPOT signal as a fraction of Bim BH3's signal on the same receptor and array is 0.06 in assay [1], 0.04 in assay [2] and 0.04 in assay [3].

B25: MFSD11 (peptide)
chain: SKEVAILCSFLLGLGDSCFNTQLLSI
As to B25, the SPOT signal as a fraction of Bim BH3's signal on the same receptor and array worked out at 0.09 in assay [1], 0.04 in assay [2] and 0.05 in assay [3].

B26: FAM149A (peptide)
chain: CGEWTRRSLHDRVLGRQLILPTDKGV
Regarding B26, the SPOT signal as a fraction of Bim BH3's signal on the same receptor and array came out at 0.91 in assay [1], 0.86 in assay [2] and 0.72 in assay [3].

B27: SGCA (peptide)
chain: LFWTPLLVVLLAGLLDTEAQQTTLHP
B27: the SPOT signal as a fraction of Bim BH3's signal on the same receptor and array in assay [1] is 0.06; in assay [2] it was 0.08; in assay [3], 0.05.

B28: NLRX1 (peptide)
chain: YIVLGLRKTTLQKVLKEVAELVGRVG
For the molecule B28, the SPOT signal as a fraction of Bim BH3's signal on the same receptor and array is 0.35 in assay [1], 0.23 in assay [2] and 0.25 in assay [3].
